Test results from article PMC2764547 (Structure (London, England : 1993), 2009).
Where a chain is given by its changes, count along the chain named. Names and notes keep the numbering of the source. Values joined by “and” are separate entries in the source; they are usually repeats but may differ in a detail not shown here. Equal entries are not always repeated. Where a SMILES comes first, the peptide text is derived from it. Where no end group is shown, it is not given here. fluorescein = fluorescein-β-alanine label at the N-terminus; βAla = NCCC(=O)O

Tests used:
[1] = biological target: H198P DegS (Escherichia coli, UniProt P0AEE3, H198P); assay: biochemical; set-up: species or system E. coli
Sequence of H198P DegS (P0AEE3 27-355 H198P limits assumed): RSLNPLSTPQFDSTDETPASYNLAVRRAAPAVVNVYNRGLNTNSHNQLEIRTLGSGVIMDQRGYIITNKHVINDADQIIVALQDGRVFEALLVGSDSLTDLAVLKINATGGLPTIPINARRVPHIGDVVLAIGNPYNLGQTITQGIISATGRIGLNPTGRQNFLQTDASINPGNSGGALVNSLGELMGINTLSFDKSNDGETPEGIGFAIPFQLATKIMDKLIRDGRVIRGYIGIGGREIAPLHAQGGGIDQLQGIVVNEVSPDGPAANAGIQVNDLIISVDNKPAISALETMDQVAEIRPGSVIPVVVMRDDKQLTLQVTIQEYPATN

[2] = biological target: T1, wild-type DegS (Escherichia coli, UniProt P0AEE3); assay: biochemical; set-up: species or system E. coli
T1 sequence (P0AEE3 27-355): as the sequence (P0AEE3 27-355 H198P limits assumed) above, with P172H counted along it

[3] = biological target: fluorescein-β-alanine-… OMP peptide; assay: fluorescence polarisation
[4] = biological target: T1, wild-type DegS; assay type: biochemical, E. coli; settings: OMP peptide present, 23 ± 1 °C; average of two or more determinations
[5] = biological target: H198P/K243D DegS (Escherichia coli, UniProt P0AEE3, H198P/K243D); assay type: biochemical, E. coli; settings: saturating OMP peptide, 23 ± 1 °C; average of two or more determinations
Sequence of H198P/K243D DegS (P0AEE3 27-355 H198P/K243D limits assumed): as the sequence (P0AEE3 27-355 H198P limits assumed) above, with K217D counted along it

[6] = biological target: the molecule itself; assay: crystal structure
[7] = system: RseA; assay: Steady-state RseA cleavage; assay type: biochemical, E. coli; settings: for Km: KM of RseA; for Km / Vmax: OMP peptide: None, 23 ± 1 °C, average of two or more determinations
[8] = system: RseA; assay: Cleavage of sub-KM RseA by DegS variants without OMP peptide; assay type: biochemical, E. coli; settings: no OMP peptide
[9] = biological target: T2, D320A E. coli DegS (residues 27-355) (E. coli, UniProt P0AEE3 27-355, D320A); assay: fluorescence polarisation
T2 sequence (looked up): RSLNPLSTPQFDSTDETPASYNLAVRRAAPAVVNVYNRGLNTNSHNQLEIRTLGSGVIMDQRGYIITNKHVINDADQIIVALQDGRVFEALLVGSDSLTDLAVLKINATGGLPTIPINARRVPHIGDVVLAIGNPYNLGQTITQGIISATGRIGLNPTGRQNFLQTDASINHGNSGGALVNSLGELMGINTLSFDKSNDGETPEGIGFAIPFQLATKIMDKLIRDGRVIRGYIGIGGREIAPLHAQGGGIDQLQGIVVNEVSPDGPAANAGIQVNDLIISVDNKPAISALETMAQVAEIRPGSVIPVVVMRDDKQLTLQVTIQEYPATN

[10] = biological target: T3, H198P/K243D E. coli DegS (residues 27-355) (E. coli, UniProt P0AEE3 27-355, H198P | K243D); assay: fluorescence polarisation
T3 sequence (looked up): T2 sequence (looked up) with H172P, K217D, A294D

[11] = biological target: T4, H198P/D320A E. coli DegS (residues 27-355) (E. coli, UniProt P0AEE3 27-355, H198P | D320A); assay: fluorescence polarisation
T4 sequence (looked up): T2 sequence (looked up) with H172P

[12] = biological target: T5, K243D E. coli DegS (residues 27-355) (E. coli, UniProt P0AEE3 27-355, K243D); assay: fluorescence polarisation
T5 sequence (looked up): T2 sequence (looked up) with K217D, A294D

[13] = biological target: T6, H198P E. coli DegS (residues 27-355) (E. coli, UniProt P0AEE3 27-355, H198P); assay: fluorescence polarisation
T6 sequence (looked up): T2 sequence (looked up) with H172P, A294D

[14] = biological target: T7, wild-type E. coli DegS (residues 27-355) (E. coli, UniProt P0AEE3 27-355); assay: fluorescence polarisation
T7 sequence (looked up): T2 sequence (looked up) with A294D

[15] = biological target: T8, H198P/K243D E. coli DegS (residues 27-355) (E. coli) (UniProt P0AEE3)
T8 sequence: T2 sequence (looked up) with H172P, K217D, A294D

[16] = biological target: T9, H198P E. coli DegS (residues 27-355) (E. coli) (UniProt P0AEE3)
T9 sequence: T2 sequence (looked up) with H172P, A294D

[17] = biological target: T10, H198P/D320A E. coli DegS (residues 27-355) (E. coli) (UniProt P0AEE3)
T10 sequence: T2 sequence (looked up) with H172P

## NC(=O)CC[C@H](NC(=O)[C@@H](N)Cc1ccc(O)cc1)C(=O)N[C@@H](Cc1ccccc1)C(=O)O [YQF] (H-Tyr-Gln-Phe-OH)
[1]
  EC50: 29 ± 5 µM
[2]
  EC50: 260 ± 10 µM

## PDZ domain of E. coli DegS (domain or fragment)
[3]
  Kd: 0.6 µM

## DNRDGNVYQF
[1]
  EC50: 4.4 ± 0.6 µM
[2]
  EC50: 50 ± 5 µM

## DNRDGNVYYF
[4]
  Vmax: 1.1 ± 0.2 s^-1 enz^-1
[5]
  Vmax: 1.8 ± 0.2 s^-1 enz^-1

B1: DFP-modified H198P/D320A E. coli DegS (residues 27-355) (enzyme, UniProt P0AEE3 27-355, looked up)
chain: T2 sequence (looked up) with H172P
modifications: Ser201 modified by diisopropylfluorophosphate (DFP); seen as monoisopropylphosphorylserine (Mis201) in the crystal structures
[6]
  stoichiometry N: 3

B2: H198P: DegS variant with His^198 substituted by proline (protein)
chain: T2 sequence (looked up) with H172P, A294D
modifications: left off: His6, N-terminal, state not stated
[7]
  Km: 560 ± 40 µM
  Vmax: 1.4 ± 0.3 s^-1 enz^-1
[7]; high concentrations of RseA, no OMP peptide
  activity with high RseA alone relative to best OMP-peptide activation: about 60%
[8]
  RseA cleavage rate relative to wild-type DegS: 150 fold

B3: H198P/K243D: DegS double mutant (protein)
chain: T2 sequence (looked up) with H172P, K217D, A294D
modifications: left off: His6, N-terminal, state not stated
[7]
  Km: 70 ± 5 µM
  Vmax: 1.2 ± 0.1 s^-1 enz^-1

B4: H198P/D320A: DegS double mutant (protein)
chain: T2 sequence (looked up) with H172P
modifications: left off: His6, N-terminal, state not stated
[7]
  Km: 110 ± 10 µM
  Vmax: 1.6 ± 0.2 s^-1 enz^-1

## {fluorescein-βAla}-KKDNRDGNYYF [fluorescein-β-alanine-KKDNRDGNYYF OMP peptide]
[9]
  Kd: 1.1 µM
[10]
  Kd: 0.68 µM
[11]
  Kd: 0.45 µM
[12]
  Kd: 3.1 µM
[13]
  Kd: 1.9 µM
[14]
  Kd: 4.6 µM

B5: 35S-labeled variant of the periplasmic domain of E. coli RseA (residues 121-216) (domain or fragment)
chain: YNGQSETSQQPETPVFNTLPMMGKASPVSLGVPSEATANNGQQQQVQEQRRRINAMLQDYELQRRLHSEQLQFEQAQTQQAAVQVPGIQTLGTQSQ
modifications: 35S-labeled
[15]
  KM of RseA cleavage, without OMP peptide: 70 µM
[16]
  KM of RseA cleavage, with saturating YQF peptide: 69 µM
  KM of RseA cleavage, with saturating YYF peptide: 64 µM
  KM of RseA cleavage, with saturating … peptide: 94 µM and 130 µM
  KM of RseA cleavage, without OMP peptide: 560 µM
[17]
  KM of RseA cleavage, without OMP peptide: 110 µM
